According to patent US11912794B2, “Modulation of structured polypeptide specificity” (BicycleRD Limited, priority 2011, dated 2024):
Ends that are not written are not given here.

Target: T1, Biotinylated hPK (Homo sapiens, UniProt P03952)
T1 construct: IHPKA, from human plasma; purchased Innovative Research, Novi, MI, USA IHPKA; host or cells: human plasma
Assay: Phage selections, abundance of sequences in selection outputs
Assay type: binding
Details: for Frequency (relative abundance in the total selection outputs): randomised WPAR motif at positions 2, 3, 4 & 5 within the 06-34-03 sequence
Protocol: Glycerol stocks of phage libraries were diluted to OD600=0.1 in 500 ml 2YT/chloramphenicol (30 μg/ml) cultures and phage were produced at 30° C. over night (15-16 hrs). Phage were purified and chemically modified as described in Heinis, et al., Nat Chem Biol 2009, 5 (7), 502-7 Biotinylated hPK (3 μg) (IHPKA, from human plasma, Innovative Research, Novi, MI, USA) was incubated with 50 μl pre-washed magnetic streptavidin beads (Dynal, M-280 from Invitrogen, Paisley, UK) for 10 minutes at RT. […] Blocked beads were then mixed with the blocked chemically modified phage and incubated for 30 minutes on a rotating wheel at RT. Beads were washed 8 times with washing buffer containing 0.1% Tween 20 and twice with washing buffer before incubation with 100 μl of 50 mM glycine, pH 2.2 for 5 minutes. Eluted phage were transferred to 50 μl of 1 M Tris-Cl, pH 8 for neutralization, incubated with 30 ml TG1 cells at OD600=0.4 for 90 minutes at 37° C. and the cells were plated on large 2YT/chloramphenicol plates. One or two additional rounds of panning were performed using the same procedures. In the second round of selection, neutravidin-coated magnetic beads were used to prevent the enrichment of streptavidin-specific peptides. The neutravidin beads were prepared by reacting 0.8 mg neutravidin (Pierce, Rockford, IL, USA) with 0.5 ml tosyl-activated magnetic beads (Dynal, M-280 from Invitrogen, Paisley, UK) according to the supplier's instructions.
The WPAR (SEQ ID NO: 18) motif identified from Example 1 was analysed in the context of the 06-34-03 peptide, in order to identify alternatives or improvements to the WPAR (SEQ ID NO: 18) motif. A library was constructed where positions 1, 6, 7, 8, 9 &10 of 06-34-03 were fixed and positions 2, 3, 4 & 5 were randomised (see ‘Randomisation of peptide domains—Library construction’ in Methods above). Selections against human plasma Kallikrein were performed at a variety of stringencies (see Phage selections' in Methods above). All output sequences were identified and analysed for target binding (see ‘Randomisation of peptide domains—Assay of binding of individual clones’ in Methods above). Table 17 lists each unique sequence, its relative abundance in the selection output (frequency), and a rank number according to target binding strength.

[1] = 2nd stringency from High (1st value of cell)
[2] = 3rd stringency from High (2nd value of cell)
[3] = 4th stringency from High (3rd value of cell)
[4] = 5th stringency from High (4th value of cell)

T1 sequence (P03952 20-638): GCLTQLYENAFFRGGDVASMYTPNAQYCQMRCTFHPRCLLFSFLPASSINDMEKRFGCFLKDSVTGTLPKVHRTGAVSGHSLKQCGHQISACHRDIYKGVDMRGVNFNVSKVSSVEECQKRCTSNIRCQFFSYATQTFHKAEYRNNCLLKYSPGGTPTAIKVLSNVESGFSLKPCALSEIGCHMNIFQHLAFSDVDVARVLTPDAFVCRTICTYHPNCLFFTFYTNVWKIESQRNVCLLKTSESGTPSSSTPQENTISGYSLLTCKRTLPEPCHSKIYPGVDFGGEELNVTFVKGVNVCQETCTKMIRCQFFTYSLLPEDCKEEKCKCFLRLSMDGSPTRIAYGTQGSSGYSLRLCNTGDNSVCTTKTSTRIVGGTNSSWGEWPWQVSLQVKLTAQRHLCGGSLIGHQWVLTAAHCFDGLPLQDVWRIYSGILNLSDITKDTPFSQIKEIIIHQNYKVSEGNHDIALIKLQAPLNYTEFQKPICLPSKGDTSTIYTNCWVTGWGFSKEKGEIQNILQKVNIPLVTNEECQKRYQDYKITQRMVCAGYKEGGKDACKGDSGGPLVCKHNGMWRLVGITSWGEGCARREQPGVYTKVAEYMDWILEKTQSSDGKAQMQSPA

## WPFR: phage clone: WPFR at positions 2-5 within the 06-34-03 sequence, TBMB-cyclised (also: TBMB-cyclised within the 06-34-03 context, the cysteines lie outside this motif)
[1]
  Relative abundance of motif in selection output: 3%
[2]
  Relative abundance of motif in selection output: 0%
[3]
  Relative abundance of motif in selection output: 0%
[4]
  Relative abundance of motif in selection output: 6%
Stringency High
  Relative abundance of motif in selection output: 7%
Stringency LOW
  Relative abundance of motif in selection output: 4%

## SEQ ID NO: 93 (CSYPFRCTHQDLC; Synthetic sequence Kallikrein binder identified from selections using a randomised WPAR motif at positions 2, 3, 4 & 5 within the 06-34-03 sequence of PCT/EP2012/069898 (SEQ ID NO 58))
  Frequency (relative abundance in the total selection outputs): 1

## SEQ ID NO: 83 (CRFPFKCTHQDLC; Synthetic sequence Kallikrein binder identified from selections using a randomised WPAR motif at positions 2, 3, 4 & 5 within the 06-34-03 sequence of PCT/EP2012/069898 (SEQ ID NO 58))
  Frequency (relative abundance in the total selection outputs): 1

## SEQ ID NO: 101 (CSFLYKCTHQDLC; Synthetic sequence Kallikrein binder identified from selections using a randomised WPAR motif at positions 2, 3, 4 & 5 within the 06-34-03 sequence of PCT/EP2012/069898 (SEQ ID NO 58))
  Frequency (relative abundance in the total selection outputs): 2

## SEQ ID NO: 112 (CSLFDHCTHQDLC; Synthetic sequence Kallikrein binder identified from selections using a randomised WPAR motif at positions 2, 3, 4 & 5 within the 06-34-03 sequence of PCT/EP2012/069898 (SEQ ID NO 58))
  Frequency (relative abundance in the total selection outputs): 1

## SEQ ID NO: 82 (CSWPYRCTHQDLC; Synthetic sequence Kallikrein binder identified from selections using a randomised WPAR motif at positions 2, 3, 4 & 5 within the 06-34-03 sequence of PCT/EP2012/069898 (SEQ ID NO 58))
  Frequency (relative abundance in the total selection outputs): 3

## SEQ ID NO: 80 (CSHPYRCTHQDLC; Synthetic sequence Kallikrein binder identified from selections using a randomised WPAR motif at positions 2, 3, 4 & 5 within the 06-34-03 sequence of PCT/EP2012/069898 (SEQ ID NO 58))
  Frequency (relative abundance in the total selection outputs): 2

## SEQ ID NO: 109 (CSFMYKCTHQDLC; Synthetic sequence Kallikrein binder identified from selections using a randomised WPAR motif at positions 2, 3, 4 & 5 within the 06-34-03 sequence of PCT/EP2012/069898 (SEQ ID NO 58))
  Frequency (relative abundance in the total selection outputs): 1

## SEQ ID NO: 100 (CSWPYKCTHQDLC; Synthetic sequence Kallikrein binder identified from selections using a randomised WPAR motif at positions 2, 3, 4 & 5 within the 06-34-03 sequence of PCT/EP2012/069898 (SEQ ID NO 58))
  Frequency (relative abundance in the total selection outputs): 1

## SEQ ID NO: 74 (CSWPSRCTHQDLC; Synthetic sequence Kallikrein binder identified from selections using a randomised WPAR motif at positions 2, 3, 4 & 5 within the 06-34-03 sequence of PCT/EP2012/069898 (SEQ ID NO 58))
  Frequency (relative abundance in the total selection outputs): 51

## SEQ ID NO: 96 (CSWHARCTHQDLC; Synthetic sequence Kallikrein binder identified from selections using a randomised WPAR motif at positions 2, 3, 4 & 5 within the 06-34-03 sequence of PCT/EP2012/069898 (SEQ ID NO 58))
  Frequency (relative abundance in the total selection outputs): 1

## FPFR: phage clone: FPFR at positions 2-5 within the 06-34-03 sequence, TBMB-cyclised (also: TBMB-cyclised within the 06-34-03 context, the cysteines lie outside this motif)
[1]
  Relative abundance of motif in selection output: 19%
[2]
  Relative abundance of motif in selection output: 9%
[3]
  Relative abundance of motif in selection output: 4%
[4]
  Relative abundance of motif in selection output: 13%
Stringency High
  Relative abundance of motif in selection output: 7%
Stringency LOW
  Relative abundance of motif in selection output: 11%

## SEQ ID NO: 114 (CSWQARCTHQDLC; Synthetic sequence Kallikrein binder identified from selections using a randomised WPAR motif at positions 2, 3, 4 & 5 within the 06-34-03 sequence of PCT/EP2012/069898 (SEQ ID NO 58))
  Frequency (relative abundance in the total selection outputs): 1

## SEQ ID NO: 106 (CSFPFWCTHQDLC; Synthetic sequence Kallikrein binder identified from selections using a randomised WPAR motif at positions 2, 3, 4 & 5 within the 06-34-03 sequence of PCT/EP2012/069898 (SEQ ID NO 58))
  Frequency (relative abundance in the total selection outputs): 1

## FPYR: phage clone: FPYR at positions 2-5 within the 06-34-03 sequence, TBMB-cyclised (also: TBMB-cyclised within the 06-34-03 context, the cysteines lie outside this motif)
[1]
  Relative abundance of motif in selection output: 3%
[2]
  Relative abundance of motif in selection output: 3%
[3]
  Relative abundance of motif in selection output: 7%
[4]
  Relative abundance of motif in selection output: 16%
Stringency High
  Relative abundance of motif in selection output: 7%
Stringency LOW
  Relative abundance of motif in selection output: 4%

## WPSR: phage clone: WPSR at positions 2-5 within the 06-34-03 sequence, TBMB-cyclised (also: TBMB-cyclised within the 06-34-03 context, the cysteines lie outside this motif)
[1]
  Relative abundance of motif in selection output: 31%
[2]
  Relative abundance of motif in selection output: 41%
[3]
  Relative abundance of motif in selection output: 26%
[4]
  Relative abundance of motif in selection output: 23%
Stringency High
  Relative abundance of motif in selection output: 34%
Stringency LOW
  Relative abundance of motif in selection output: 11%

## SEQ ID NO: 81 (CSHPFRCTHQDLC; Synthetic sequence Kallikrein binder identified from selections using a randomised WPAR motif at positions 2, 3, 4 & 5 within the 06-34-03 sequence of PCT/EP2012/069898 (SEQ ID NO 58))
  Frequency (relative abundance in the total selection outputs): 1

## SEQ ID NO: 87 (CSFPIRCTHQDLC; Synthetic sequence Kallikrein binder identified from selections using a randomised WPAR motif at positions 2, 3, 4 & 5 within the 06-34-03 sequence of PCT/EP2012/069898 (SEQ ID NO 58))
  Frequency (relative abundance in the total selection outputs): 1

## SEQ ID NO: 111 (CRWPYHCTHQDLC; Synthetic sequence Kallikrein binder identified from selections using a randomised WPAR motif at positions 2, 3, 4 & 5 within the 06-34-03 sequence of PCT/EP2012/069898 (SEQ ID NO 58))
  Frequency (relative abundance in the total selection outputs): 1

## SEQ ID NO: 78 (CSFPFKCTHQDLC; Synthetic sequence Kallikrein binder identified from selections using a randomised WPAR motif at positions 2, 3, 4 & 5 within the 06-34-03 sequence of PCT/EP2012/069898 (SEQ ID NO 58))
  Frequency (relative abundance in the total selection outputs): 4

## SEQ ID NO: 94 (CSFPYKCTHQDLC; Synthetic sequence Kallikrein binder identified from selections using a randomised WPAR motif at positions 2, 3, 4 & 5 within the 06-34-03 sequence of PCT/EP2012/069898 (SEQ ID NO 58))
  Frequency (relative abundance in the total selection outputs): 1
